Laboratory results reported in PMC11931385, “Structural and functional analysis of cancer-associated missense variants in the retinoblastoma protein pocket domain” (The Journal of Biological Chemistry, 2025).
Where a chain is given by its changes, count along the chain named. Names may count otherwise. No end group written: not given here. TMR = tetramethyl rhodamine dye

T1: Rb^P Q444R (human, UniProt P06400 380-788, Q444R)
T1 construct: also called variant 4
T1 sequence (looked up): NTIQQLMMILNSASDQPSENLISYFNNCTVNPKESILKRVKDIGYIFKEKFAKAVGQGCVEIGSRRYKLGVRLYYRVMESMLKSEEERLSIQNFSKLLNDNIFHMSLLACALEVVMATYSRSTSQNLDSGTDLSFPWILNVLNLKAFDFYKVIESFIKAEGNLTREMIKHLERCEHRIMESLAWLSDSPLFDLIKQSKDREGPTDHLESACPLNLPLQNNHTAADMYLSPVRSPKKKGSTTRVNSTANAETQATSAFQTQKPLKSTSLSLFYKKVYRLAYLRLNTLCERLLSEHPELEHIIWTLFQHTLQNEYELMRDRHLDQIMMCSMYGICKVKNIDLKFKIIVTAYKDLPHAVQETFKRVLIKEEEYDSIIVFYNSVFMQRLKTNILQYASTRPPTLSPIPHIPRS

T2: Rb^P R621C (human, UniProt P06400 380-788, R621C)
T2 construct: also called variant 41
T2 sequence (looked up): T1 sequence (looked up) with R65Q, R242C

T3: Rb^P S474I (human, UniProt P06400 380-788, S474I)
T3 construct: also called variant 11
T3 sequence (looked up): T1 sequence (looked up) with R65Q, S95I

T4: Rb^P E440K (human, UniProt P06400 380-788, E440K)
T4 construct: also called variant 1
T4 sequence (looked up): T1 sequence (looked up) with E61K, R65Q

T5: Rb^P H673Y (human, UniProt P06400 380-788, H673Y)
T5 construct: also called variant 55
T5 sequence (looked up): T1 sequence (looked up) with R65Q, H294Y

B1: TMR-E2F1^TD, peptide of the E2F1 transactivation domain (peptide)
peptide: {TMR}-GEGIRDLFDCDFGDLTPLD
notes: also called E2F^TD; source: synthetic peptide, bought: GenScript
B2: TMR-E7^LxCxE, LxCxE peptide of the E7 oncoprotein from HPV (peptide)
peptide: DLYCYEQLN
modifications: also: TMR label, position not given here
notes: source: synthetic peptide, bought: GenScript

Columns and labels:
Assay in all cases: fluorescence polarisation; 25 °C; unlabeled Rb^P titrated against 1.5 nM TMR-E2F1^TD or 7.5 nM TMR-E7^LxCxE; 25 mM Tris pH 8.0, 200 mM NaCl, 1 mM DTT, 0.1% Tween-20; 2 min incubation; quadratic fit; apparent Kd for the variants, Kd for WT
Conditions in all cases: both partners purified
Rb^P Q444R = target: T1, Rb^P Q444R
Rb^P R621C = target: T2, Rb^P R621C
Rb^P S474I = target: T3, Rb^P S474I
Rb^P E440K = target: T4, Rb^P E440K
Rb^P H673Y = target: T5, Rb^P H673Y

| Binder | Kd (Rb^P Q444R) [nM] | Kd (Rb^P R621C) [nM] | Kd (Rb^P S474I) [nM] | Kd (Rb^P E440K) [nM] | Kd (Rb^P H673Y) [nM] |
| --- | --- | --- | --- | --- | --- |
| B1 | 15 | 22 | 364 | 12 | 26 |
| B2 | 7 | 12 | 7 | 5 | 10 |
